Results published in patent US20230212319A1, “NOVEL ANTIGEN BINDING DOMAINS AND SYNTHETIC ANTIGEN RECEPTORS INCORPORATING THE SAME” (University of Southern California, priority 2020, published 2023).

B1: CD8SP-BCMA-FHVH-93-G4S-CD19-MOR0028-scFv-hCD8TM-BBZ-T2A-PAC (protein)
chain: ACEVQLLESGGGLIQPGGSLRLSCAASGFTFSSHAMTWVRQAPGKGLEWVSAISGSGDYTHYADSVKGRFTISRDNSKNTVYLQMNSLRAEDSAVYYCAKDEDGGSLLGHRGQGTLVTVSSGTGGGGSGGGGSGGGGSEFINIYNAEPANPSEKNSPEFDIVMTQSPATLSLSPGERATLSCRSSKSLQNVNGNTYLYWFQQKPGQSPQLLIYRMSNLNSGVPDRFSGSGSGTEFTLTISSLEPEDFAVYYCMQHLEYPITFGAGTKLEIKGGGGSGGGGSGGGGSEVQLVESGGGLVKPGGSLKLSCAASGYTFTSYVMHWVRQAPGKGLEWIGYINPYNDGTKYNEKFQGRVTISSDKSISTAYMELSSLRSEDTAMYYCARGTYYYGTRVFDYWGQGTLVTVSSTRTTTPAPRPPTPAPTIASQPLSLRPEACRPAAGGAVHTRGLDFACDIYIWAPLAGTCGVLLLSLVITLYCKRGRKKLLYIFKQPFMRPVQTTQEEDGCSCRFPEEEEGGCELRVKFSRSADAPAYQQGQNQLYNELNLGRREEYDVLDKRRGRDPEMGGKPRRKNPQEGLYNELQKDKMAEAYSEIGMKGERRRGKGHDGLYQGLSTATKDTYDALHMQALPPRSSGSGEGRGSLLTCGDVEENPGPHMTEYKPTVRLATRDDVPRAVRTLAAAFADYPATRHTVDPDRHIERVTELQELFLTRVGLDIGKVWVADDGAAVAVWTTPESVEAGAVFAEIGPRMAELSGSRLAAQQQMEGLLAPHRPKEPAWFLATVGVSPDHQGKGLGSAVVLPGVEAAERAGVPAFLETSAPRNLPFYERLGFTVTADVEVPEGPRTWCMTRKPGA
B2: 22114 (protein)
chain: MALPVTALLLPLALLLHAARPDIQMTQSPSSLSASVGDRVTITCKASDHINNWLAWYQQKPGQAPKLLIYGATTLETGVPSRFSGSGSGTDYTLTISSLQPEDFATYYCQQSWNTPWTFGQGTKLEIKRLEIQNPDPAVYQLRDSKSSDKSVCLFTDFDSQTNVSQSKDSDVYITDKCVLDMRSMDFKSNSAVAWSNKSDFACANAFNNSIIPEDTFFPSSDVPCDVKLVEKSFETDTNLNFQNLSVIGFRILLLKVAGFNLLMTLRLWSSRAKRSGSGVKQTLNFDLLKLAGDVESNPGPTSATMDWIWRILFLVGAATGAHSGPQVQLQESGGGLAQAGGSLRLSCAASGRTFSMGWFRQAPGKEREFVAAITYSGGSPYYASSVRGRFTISRDNAKNTVYLQMNSLKPEDTAVYYCAANPTYGSDWNAENWGQGTQVTVSSGSGGGGSGGGGSGGGGSFEQVQLQQPGAELVKPGASVKMSCKASGYAFSSYWINWMKQKPGQGLEWIGQIYPGDGDTNYNGKFKGRATLTADTSSSTAYMQLSSLTSEDSAVYFCARSITTVVGCAMDYWGQGTSVTVSSTREDLKNVFPPEVAVFEPSKAEIAHTQKATLVCLATGFYPDHVELSWWVNGKEVHSGVCTDPQPLKEQPALNDSRYCLSSRLRVSATFWQNPRNHFRCQVQFYGLSENDEWTQDRAKPVTQIVSAEAWGRADCGITSASYHQGVLSATILYEILLGKATLYAVLVSALVLMAMVKRKDSRGRAKRSGSGATNFSLLKQAGDVEENPGPSRGHMTEYKPTVRLATRDDVPRAVRTLAAAFADYPATRHTVDPDRHIERVTELQELFLTRVGLDIGKVWVADDGAAVAVWTTPESVEAGAVFAEIGPRMAELSGSRLAAQQQMEGLLAPHRPKEPAWFLATVGVSPDHQGKGLGSAVVLPGVEAAERAGVPAFLETSAPRNLPFYERLGFTVTADVEVPEGPRTWCMTRKPGA
B3: 22226 (protein)
chain: MALPVTALLLPLALLLHAARPACEVQLLESGGGLIQPGGSLRLSCAASGFTFSSHAMTWVRQAPGKGLEWVSAISGSGDYTHYADSVKGRFTISRDNSKNTVYLQMNSLRAEDSAVYYCAKDEDGGSLLGHRGQGTLVTVSSGTGPQGIFGQPGYINEFDIQMTQSPSSLSASVGDRVTITCKASDHINNWLAWYQQKPGQAPKLLIYGATTLETGVPSRFSGSGSGTDYTLTISSLQPEDFATYYCQQSWNTPWTFGQGTKLEIKRLEDLKNVFPPEVAVFEPSKAEIAHTQKATLVCLATGFYPDHVELSWWVNGKEVHSGVCTDPQPLKEQPALNDSRYCLSSRLRVSATFWQNPRNHFRCQVQFYGLSENDEWTQDRAKPVTQIVSAEAWGRADCGITSASYHQGVLSATILYEILLGKATLYAVLVSALVLMAMVKRKDSRGRAKRSGSGATNFSLLKQAGDVEENPGPTSATMDWIWRILFLVGAATGAHSGPEVQLVESGGGLVQAGGSLRLSCAASGRTFSMGWFRQAPGKEREFVAAITYSGGSPYYADSVKGRFTISRDNAKNTVYLQMNSLKPEDTAVYYCAANPTYGSDWNAENWGQGTQVTVSSGSGGGGSGGGGSGGGGSFEQVQLQQPGAELVKPGASVKMSCKASGYAFSSYWINWMKQKPGQGLEWIGQIYPGDGDTNYNGKFKGRATLTADTSSSTAYMQLSSLTSEDSAVYFCARSITTVVGCAMDYWGQGTSVTVSSTRIQNPDPAVYQLRDSKSSDKSVCLFTDFDSQTNVSQSKDSDVYITDKCVLDMRSMDFKSNSAVAWSNKSDFACANAFNNSIIPEDTFFPSPESSCDVKLVEKSFETDTNLNFQNLSVIGFRILLLKVAGFNLLMTLRLWSSRAKRSGSGVKQTLNFDLLKLAGDVESNPGPSRGHMTEYKPTVRLATRDDVPRAVRTLAAAFADYPATRHTVDPDRHIERVTELQELFLTRVGLDIGKVWVADDGAAVAVWTTPESVEAGAVFAEIGPRMAELSGSRLAAQQQMEGLLAPHRPKEPAWFLATVGVSPDHQGKGLGSAVVLPGVEAAERAGVPAFLETSAPRNLPFYERLGFTVTADVEVPEGPRTWCMTRKPGA

Experiments:
Format in all cases: cell-based
[1] = tested on: RAJI cells; assay: JNG assay, co-culture with RAJI cells; settings: co-culture with Raji
Procedure, shortened: (§1)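 Read-out is NFAT-driven GFP measured by flow cytometry after ~4–18 h co-culture of SAR-expressing JNG cells with target cells (E:T about 1:2). SARs were introduced by lentiviral spinfection and selected with puromycin or blasticidin when possible; scores (+/- to 5+ ≈ 5–50% GFP+) are relative to parental JNG cells.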

[2] = tested on: RAJI-CD19-KO cells; assay: JNG assay, co-culture with RAJI-CD19-KO cells; settings: co-culture with Raji-CD19-KO
Procedure, shortened: as §1

[3] = tested on: RS;411; assay: JNG assay, co-culture with RS;411 cells; settings: co-culture with RS411
Procedure, shortened: as §1

[4] = tested on: L363 cells; assay: JNG assay, co-culture with L363 cells; settings: co-culture with L363
Procedure, shortened: as §1

[5] = tested on: Nalm6 cells; assay: JNG assay, co-culture with Nalm6 cells; settings: co-culture with Nalm6
Procedure, shortened: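 Scoring uses % GFP+ reporter cells above the parental control, where +/-, +, 2+, 3+, 4+ and 5+ correspond to about 5, 10, 20, 30, 40 and 50%. Effectors were SAR-expressing Jurkat NFAT-GFP cells cocultured with targets (E:T ~1:2, ~4–18 h).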

Molecule | NFAT-GFP ASSAY (JNG): GFP induction, Raji [1] | NFAT-GFP ASSAY (JNG): GFP induction, Raji-CD19-KO [2] | NFAT-GFP ASSAY (JNG): GFP induction, RS411 [3] | NFAT-GFP ASSAY: Raji-CD19-KO [2] | NFAT-GFP ASSAY: RS411 [3] | NFAT-GFP ASSAY: Raji ([1]; JNG cells expressing construct) | NFAT-GFP ASSAY: L363 [4] | NFAT-GFP ASSAY: Nalm6 [5]
B1 | 4+ (refer to approximately 5%, 10%, 20%, 30%, 40% and 50% GFP positive cells) | 3+ (refer to approximately 5%, 10%, 20%, 30%, 40% and 50% GFP positive cells) | 5+ (refer to approximately 5%, 10%, 20%, 30%, 40% and 50% GFP positive cells) | – | – | – | – | –
B2 | – | – | – | 5+ (refer to approximately 5%, 10%, 20%, 30%, 40% and 50% GFP positive cells) | 5+ (refer to approximately 5%, 10%, 20%, 30%, 40% and 50% GFP positive cells) | – | – | –
B3 | – | – | – | – | +/- (refer to approximately 5%, 10%, 20%, 30%, 40% and 50% GFP positive cells) | +/- (refer to approximately 5%, 10%, 20%, 30%, 40% and 50% GFP positive cells) | + (refer to approximately 5%, 10%, 20%, 30%, 40% and 50% GFP positive cells) | + (refer to approximately 5%, 10%, 20%, 30%, 40% and 50% GFP positive cells)
